The text below walks through data of article PMC5622320 (Nucleic Acids Research, 2017).

This experiment addresses T1, stFlhD4C2 (Salmonella typhimurium, UniProt P0A2R2;O52222).
T1 sequence 1: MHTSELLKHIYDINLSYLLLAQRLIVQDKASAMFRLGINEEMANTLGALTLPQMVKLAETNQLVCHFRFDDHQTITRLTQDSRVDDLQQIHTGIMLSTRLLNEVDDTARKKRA
T1 sequence 2: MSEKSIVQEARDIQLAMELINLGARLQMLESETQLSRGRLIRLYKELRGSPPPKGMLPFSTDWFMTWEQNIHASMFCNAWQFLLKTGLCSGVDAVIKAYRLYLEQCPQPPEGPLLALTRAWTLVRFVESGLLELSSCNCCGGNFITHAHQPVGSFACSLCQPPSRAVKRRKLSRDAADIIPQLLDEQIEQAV
Nature of the experiment: native gel or EMSA.

B1: YdiV (natural protein)
chain: MKIFLENLYHSDCYFLPIRDNQQVLVGVELITHFSSEDGTVRIPTSRVIAQLTEEQHWQLFSEQLELLKSCQHFFIQHKLFAWLNLTPQVATLLLERDNYAGELLKYPFIELLINENYPHLNEGKDNRGLLSLSQVYPLVLGNLGAGNSTMKAVFDGLFTRVMLDKSFIQQQITHRSFEPFIRAIQAQISPCCNCIIAGGIDTAEILAQITPFDFHALQGCLWPAVPINQITTLVQR
Turning to B1, the binding result is on record as “binds”.
